# Assay results from publication PMC3226476.
# pKd: −log10 of the molar value. Read-outs that look alike come from different tables or passages of the source.
# Key:
# Assay in all cases: co-sedimentation
# [1] = biological target: Taxol-stabilized microtubules (polymerized porcine brain tubulin) (porcine (purified from brain)) (UniProt P02550)
# [2] = biological target: Taxol-stabilized microtubules (polymerized porcine brain tubulin) (porcine (purified from brain)) (UniProt P02550); remark: listed apart in the source
# [3] = biological target: mDia2-FH1FH2C (mouse, 521-1171) (mouse) (UniProt Q9Z207)
# [4] = biological target: mDia1-FH1FH2C (mouse, amino acids 548-1255) (mouse) (UniProt O08808)
# [5] = biological target: INF2-FH1FH2 (human, 469-941) (human) (UniProt Q27J81)
Substance,pKd [1],stoichiometry N (tubulin dimer:formin dimer) [1],further results
"GST-INF2-Cterm (human CAAX variant, 941-1249) (from UniProt Q27J81 941-1249) (domain or fragment)",< 4.70,–,–
GST-mDia1-Cterm (1149-1255) (from UniProt O08808 1149-1255) (domain or fragment),< 4.70,–,–
GST-mDia2-Cterm (1009-1171) (from UniProt Q9Z207 1009-1171) (domain or fragment),3.15,0.6,pKd [2]: 6.15
LatB-stabilized actin monomers (rabbit skeletal muscle actin) (from UniProt P68135 1-377) (natural protein),–,–,percent of the actin in the pellet [3]: 10%; percent of the actin in the pellet [4]: 10%; percent of the actin in the pellet [5]: 10%
"mDia1-FH1FH2C (mouse, amino acids 548-1255) (from UniProt O08808 548-1255) (domain or fragment)",–,3.09,–
